From patent US20220127354A1 (Amgen, published 2022)
Residue numbers refer to the chain shown, from its start. Names and notes keep the numbering of the source.

Tests used:
Test in all cases: flow cytometry, transfected 293T cells
[1] = target: huCDH19(44-772) with Flag tag (construct A, Hu EC1-5) (human, UniProt Q9H159 44-772)
Source text: (§1) The experiment included assaying the anti-CDH19 antibodies against mouse Cadherin19 to determine suitability for binning on these human/mouse chimeras.

[2] = target: T1, muCDH19(44-139)::huCDH19(142-364)::muCDH19(363-770) with Flag tag (construct E, Hu EC2-3) (human/mouse chimera)
T1 construct: leader left out; the entry starts at residue 44; also called C137847
Source text: as §1

[3] = target: T2, muCDH19(44-461)::huCDH19(464-772) with Flag tag (construct H, Hu EC5) (human/mouse chimera)
T2 construct: leader left out; the entry starts at residue 44; also called C137915
T2 chain: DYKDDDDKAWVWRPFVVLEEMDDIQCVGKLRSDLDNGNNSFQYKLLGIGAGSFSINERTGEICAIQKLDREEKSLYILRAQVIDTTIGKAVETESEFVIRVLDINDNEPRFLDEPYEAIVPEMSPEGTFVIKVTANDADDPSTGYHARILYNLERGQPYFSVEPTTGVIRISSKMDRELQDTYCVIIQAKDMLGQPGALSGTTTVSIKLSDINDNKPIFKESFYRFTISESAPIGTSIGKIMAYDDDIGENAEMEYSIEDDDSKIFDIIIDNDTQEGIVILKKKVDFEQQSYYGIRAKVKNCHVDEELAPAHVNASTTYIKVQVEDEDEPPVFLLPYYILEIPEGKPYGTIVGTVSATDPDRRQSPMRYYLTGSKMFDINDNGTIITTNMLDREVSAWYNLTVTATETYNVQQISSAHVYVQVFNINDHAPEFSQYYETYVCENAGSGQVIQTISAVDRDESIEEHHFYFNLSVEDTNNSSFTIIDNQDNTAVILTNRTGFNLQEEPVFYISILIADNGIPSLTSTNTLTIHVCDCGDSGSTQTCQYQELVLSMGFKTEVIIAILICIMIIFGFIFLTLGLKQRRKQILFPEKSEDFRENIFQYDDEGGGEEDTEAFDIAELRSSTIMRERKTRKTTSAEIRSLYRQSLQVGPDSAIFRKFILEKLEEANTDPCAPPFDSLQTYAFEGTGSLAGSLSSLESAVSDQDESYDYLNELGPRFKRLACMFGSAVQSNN
Source text: as §1

[4] = target: T3, muCDH19(44-362)::huCDH19(365-772) with Flag tag (construct G, Hu EC4-5) (human/mouse chimera)
T3 construct: leader left out; the entry starts at residue 44; also called C137917
T3 chain: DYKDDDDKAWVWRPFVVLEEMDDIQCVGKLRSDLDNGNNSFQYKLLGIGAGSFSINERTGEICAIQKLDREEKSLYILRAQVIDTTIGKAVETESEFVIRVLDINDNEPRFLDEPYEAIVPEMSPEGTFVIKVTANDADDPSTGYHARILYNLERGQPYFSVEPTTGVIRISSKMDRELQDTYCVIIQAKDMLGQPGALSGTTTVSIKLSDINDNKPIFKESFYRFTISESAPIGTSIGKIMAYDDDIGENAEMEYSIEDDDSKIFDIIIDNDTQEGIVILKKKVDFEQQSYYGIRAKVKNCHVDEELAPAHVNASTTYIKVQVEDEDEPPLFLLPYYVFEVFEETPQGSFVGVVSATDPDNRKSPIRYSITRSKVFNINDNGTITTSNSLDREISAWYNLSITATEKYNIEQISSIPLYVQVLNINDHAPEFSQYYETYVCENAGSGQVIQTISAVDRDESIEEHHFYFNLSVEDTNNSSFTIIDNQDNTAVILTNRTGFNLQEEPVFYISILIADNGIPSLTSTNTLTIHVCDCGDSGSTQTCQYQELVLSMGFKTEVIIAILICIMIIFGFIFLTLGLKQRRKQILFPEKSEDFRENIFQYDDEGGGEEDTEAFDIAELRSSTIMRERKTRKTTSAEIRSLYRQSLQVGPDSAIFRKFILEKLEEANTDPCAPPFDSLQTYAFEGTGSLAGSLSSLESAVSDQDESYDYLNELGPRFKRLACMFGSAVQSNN
Source text: as §1

[5] = target: T4, muCDH19(44-247)::huCDH19(250-364)::muCDH19(363-770) with Flag tag (construct F, Hu EC3) (human/mouse chimera)
T4 construct: leader left out; the entry starts at residue 44; also called C137911
Source text: as §1

[6] = target: T5, muCDH19(44-770) with Flag tag (construct I, Mu EC1-5) (mouse)
T5 construct: leader left out; the entry starts at residue 44; also called Mo EC1-5; mouse Cadherin19
T5 chain: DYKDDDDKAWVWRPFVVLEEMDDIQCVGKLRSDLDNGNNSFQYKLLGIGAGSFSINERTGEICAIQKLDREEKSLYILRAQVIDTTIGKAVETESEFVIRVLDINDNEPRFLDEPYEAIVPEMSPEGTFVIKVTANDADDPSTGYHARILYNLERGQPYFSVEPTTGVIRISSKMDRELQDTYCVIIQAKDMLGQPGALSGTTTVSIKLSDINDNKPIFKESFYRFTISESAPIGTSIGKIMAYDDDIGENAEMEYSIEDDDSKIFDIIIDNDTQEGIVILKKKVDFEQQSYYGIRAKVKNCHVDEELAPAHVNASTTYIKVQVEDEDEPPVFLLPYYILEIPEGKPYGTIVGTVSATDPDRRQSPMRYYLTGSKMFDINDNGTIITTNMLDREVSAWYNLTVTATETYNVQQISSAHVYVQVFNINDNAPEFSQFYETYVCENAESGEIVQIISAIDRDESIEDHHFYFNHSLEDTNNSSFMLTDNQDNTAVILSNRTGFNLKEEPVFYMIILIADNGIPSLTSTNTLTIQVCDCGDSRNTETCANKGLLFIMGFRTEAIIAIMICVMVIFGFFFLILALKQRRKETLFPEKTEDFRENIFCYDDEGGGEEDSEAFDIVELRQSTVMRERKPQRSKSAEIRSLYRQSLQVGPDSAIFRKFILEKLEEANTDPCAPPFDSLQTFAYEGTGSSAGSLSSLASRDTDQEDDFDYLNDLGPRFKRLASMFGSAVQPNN
Source text: as §1

[7] = target: T6, muCDH19(44-139)::huCDH19(142-249)::muCDH19(248-770) with Flag tag (construct D, Hu EC2) (human/mouse chimera)
T6 construct: leader left out; the entry starts at residue 44; also called C137913
T6 chain: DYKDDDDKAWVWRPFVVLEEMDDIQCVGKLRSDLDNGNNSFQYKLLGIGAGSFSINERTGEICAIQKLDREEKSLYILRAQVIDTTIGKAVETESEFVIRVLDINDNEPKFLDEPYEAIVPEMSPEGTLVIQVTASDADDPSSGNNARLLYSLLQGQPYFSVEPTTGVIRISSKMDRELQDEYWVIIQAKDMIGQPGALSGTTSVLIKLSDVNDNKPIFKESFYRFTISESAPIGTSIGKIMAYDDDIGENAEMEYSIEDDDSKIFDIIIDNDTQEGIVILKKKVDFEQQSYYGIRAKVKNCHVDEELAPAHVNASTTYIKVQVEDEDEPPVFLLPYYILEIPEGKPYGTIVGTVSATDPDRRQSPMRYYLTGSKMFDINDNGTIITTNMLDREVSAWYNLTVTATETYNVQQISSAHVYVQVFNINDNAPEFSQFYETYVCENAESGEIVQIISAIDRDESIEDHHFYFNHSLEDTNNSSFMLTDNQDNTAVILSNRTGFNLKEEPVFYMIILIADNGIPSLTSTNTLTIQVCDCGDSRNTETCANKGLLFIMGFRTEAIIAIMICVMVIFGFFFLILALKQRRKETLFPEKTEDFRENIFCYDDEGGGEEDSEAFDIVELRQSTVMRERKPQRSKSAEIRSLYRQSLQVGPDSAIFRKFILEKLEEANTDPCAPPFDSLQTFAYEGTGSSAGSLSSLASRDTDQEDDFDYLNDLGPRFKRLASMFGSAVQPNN
Source text: as §1

[8] = target: T7, huCDH19(44-141)::muCDH19(140-770) with Flag tag (construct B, Hu EC1) (human/mouse chimera)
T7 construct: leader left out; the entry starts at residue 44; also called C137897
Source text: as §1

[9] = target: T8, huCDH19(44-249)::muCDH19(248-770) with Flag tag (construct C, Hu EC1-2) (human/mouse chimera)
T8 construct: leader left out; the entry starts at residue 44; also called C137896
Source text: as §1

Measured: binding result

B1: hu anti-<huCDH19> 2G6 (1-477)(R17G) VH::huIgG1z + 23A10.3 (1-231)(C42S) VL::huLLC-C2 (Ab ID 14304) (antibody, V domains shown)
VH: QVQLVESGGGVVQPGGSLRLSCAASGFTFSSYGMHWVRQAPGKGLEWVAFIWYDGSNKYYADSVKDRFTISRDNSKNTLYLQMKSLRAEDTAVYYCARRAGIIGTIGYYYGMDVWGQGTTVTVSS
VL: SYELTQPPSVSVSPGQTASITCSGDRLGEKYVSWYQQKPGQSPILVIYQDNKWPSGIPERFSGSNSGNTATLTISGTQAMDEADYYCQAWDSSTVVFGGGTKLTVLG
notes: light chain is that of 23A10.3 (C42S); Bin 4
binds: all assays above

B2: hu anti-<huCDH19> 2G6 (1-477)(R17G,D61E,D72E,K94N) VH::huIgG1z + 2G6 (1-234)(C42S,D110E) VL::huLLC-C1 (Ab ID 14039) (antibody, V domains shown)
VH: B1 VH with D54E, D62E, K84N
VL: B1 VL with V32T, K38R, I44L, N51T, W53R, D91E
notes: Engineered variant of 2G6; the entries already carry the changes; Bin 4
binds: all assays above
